The data set deals with the molecule itself. Description: HP-SEC, self-association. On the procedure: To determine the molecular weight of the IL4-IL10 fusion protein, a High Performance Size Exclusion Chromatography (HP-SEC) assay was performed. The gel filtration (BioSuite 125 4 μm UHR SEC Column; Waters; Cat #186002161) was performed on a High-Performance Liquid Chromatography System (Shimadzu) with 50 mM phosphate buffer containing 0.5 M NaCl as mobile phase. The column was calibrated prior to the run using a protein mix of thyroglobulin, bovine serum albumen, carbonic anhydrase, myoglobulin, and ribonuclease. The IL4-IL10 fusion protein purified by cation exchange was obtained by pooling and concentrating the chromatography fractions with the highest IL4-IL10 fusion protein content (2 ml of pooled fractions was concentrated to 100 μl, containing 2 μg of IL4-IL10 fusion protein). Fifty μl of 20 μg/ml of pooled IL4-IL10 fusion protein was injected and ran trough the column at a flow rate of 0.35 ml/min and under a pressure of 35 bar. Fractions of 175 μl were collected and the IL4 and IL10 content was measured in the above described IL4 and IL10 ELISA (1/500 dilution). Similar runs with recombinant human IL4 (Sigma, Cat #14269) and recombinant human IL10 (Sigma, Cat #19276) were performed to compare the molecular size of the IL4-IL10 fusion protein with that of the wild-type cytokines.

B1: IL4-IL10 fusion protein (other)
chain: HKCDITLQEIIKTLNSLTEQKTLCTELTVTDIFAASKNTTEKETFCRAATVLRQFYSHHEKDTRCLGATAQQFHRHKQLIRFLKRLDRNLWGLAGLNSCPVKEANQSTLENFLERLKTIMREKYSKCSSGSGGGGSGTSPGQGTQSENSCTHFPGNLPNMLRDLRDAFSRVKTFFQMKDQLDNLLLKESLLEDFKGYLGCQALSEMIQFYLEEVMPQAENQDPDIKAHVNSLGENLKTLRLRLRRCHRFLPCENKSKAVEQVKNAFNKLQEKGIYKAMSEFDIFINYIEAYMTMKIRN
modifications: glycosylated (two glycoforms on the blot, one band after PNGaseF); made with co-transfected sialyltransferase to cap the glycans with sialic acid; sites not stated
notes: On the Western blot it was reduced and denatured; also called IL4-10 fusion protein; IL4-IL10 protein
As for B1, the binding result is on record as “binds”.

B2: recombinant human IL10 (Sigma, Cat #19276) (ligand, UniProt P22301 19-178, looked up)
chain: SPGQGTQSENSCTHFPGNLPNMLRDLRDAFSRVKTFFQMKDQLDNLLLKESLLEDFKGYLGCQALSEMIQFYLEEVMPQAENQDPDIKAHVNSLGENLKTLRLRLRRCHRFLPCENKSKAVEQVKNAFNKLQEKGIYKAMSEFDIFINYIEAYMTMKIRN
notes: also called recombinant IL10; wild-type IL10
Consider B2, for which the binding result is “binds”.

These data come from US20200147178A1 (SYNERKINE PHARMA B V, published 2020).
